Reference: patent US20220193237A1 (Bristol-Myers Squibb, published 2022)
Where a chain is given by its changes, count along the chain named. Names and notes keep the numbering of the source. Read-outs that look alike come from different tables or passages of the source. Blank lines part the entries; values can stand above or below the binder they belong to.

Experiments:
[1] = molecular target: T1, human CTLA-4 on 58 α-β-CTLA-4/CD3 ζ cells (human; mouse (mCD3ζ)); test: flow cytometry (GMFI), full-length IgG on 58 α-β-CTLA-4/CD3 ζ cells, pH 6.3
T1 construct: also called 58αβ-hCTLA4/mCD3ζ cells; 58αβ-CTLA4/mCD3ζ cells

[2] = molecular target: T1, human CTLA-4 on 58 α-β-CTLA-4/CD3 ζ …; test: flow cytometry (GMFI), full-length IgG on 58 α-β-CTLA-4/CD3 ζ cells, pH 7.2
[3] = molecular target: T1, human CTLA-4 on 58 α-β-CTLA-4/CD3 ζ …; test: flow cytometry (GMFI), full-length IgG on 58 α-β-CTLA-4/CD3 ζ cells, pH 6.6
[4] = molecular target: T1, human CTLA-4 on 58 α-β-CTLA-4/CD3 ζ …; test: flow cytometry (APC mean FI), Fab on 58αβ-CTLA4/mCD3ζ cells, pH 6.2
Description: (§1) Antibodies were titrated from 100 μg/mL at a 1:4 dilution across 12 points in pH-specific buffers and incubated for 30-60 minutes. Buffers contained HBSS, 2% FBS^HI, 0.02% sodium azide, 2 mM EDTA, and sodium phosphate buffer (pH 5.4). Sodium phosphate buffer was added until desired pH was reached (7.2, 6.7, 6.2). Approximately 3e5 cells/well were tested for each cell line. […] Detection was done with a monovalent anti-hKappa secondary nanobody conjugated to Alexa647 and used at a dilution of 1:2000. Cells were fixed with BD Fix Solution I for 30 minutes prior to resuspension in pH-specific buffers and reading on the cytometer (BD Fortessa).
(§2) The experimental protocol was the same as used to obtain the data of FIGS. 16A-C.

monomeric human CTLA-4 [5] = molecular target: T2, monomeric human CTLA-4 (human, UniProt P16410 36-161, limits assumed); test: SPR, captured Fab, pH 6.0
T2 construct: Soluble monomeric analyte in SPR; also called huCTLA-4
T2 sequence: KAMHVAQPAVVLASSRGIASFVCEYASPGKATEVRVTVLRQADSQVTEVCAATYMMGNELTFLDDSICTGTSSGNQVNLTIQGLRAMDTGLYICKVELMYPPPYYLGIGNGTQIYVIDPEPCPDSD
Description: (§3) Binding of selected variants to human CTLA-4 was determined essentially as described in Example 3. […] Nomenclature and sequences for these antibodies is provided at Tables 6 and 7, and in the sequence listing as summarized at Table 8.
(§4) Monomeric human CTLA-4 was flowed as analyte with up to 2 μM top concentration. Between cycles, the capture surface was regenerated with 75 mM phosphoric acid. Experiments were run on a BIACORE® T200 instrument at 37° C. Running buffers were HEPES buffered saline for pH 7.4 experiments and Bis-Tris buffered saline for lower pH experiments. […] Double referenced sensorgrams were fitted to a 1:1 Langmuir binding model with mass transport to determine equilibrium dissociation constants (KD), as well as association (kₐ) and dissociation (kd) rate constants where appropriate.

monomeric human CTLA-4 [6] = molecular target: T2, monomeric human CTLA-4; test: SPR, captured Fab, pH 7.4
Description: as §3, §4

monomeric human CTLA-4 [7] = molecular target: T2, monomeric human CTLA-4; test: SPR, captured Fab, pH 6.0 vs 7.4
Description: as §3, §4

monomeric cyno CTLA-4 [8] = molecular target: T3, monomeric cyno CTLA-4 (cynomolgus macaque (Macaca fascicularis), UniProt G7PL88 36-161); test: SPR, Fab, monomeric cyno CTLA-4 as analyte; KD (M, log axis 10^-9 to 10^-5) plotted against pH
T3 construct: also called CTLA-4 from the cynomolgus macaque Macaca fascicularis
T3 sequence: T2 sequence with S14N, I18T, L106M
Description: (§5) The pH dependence of binding of selected antibodies of the present invention to human CTLA-4 and cyno CTLA-4 was measured by surface plasmon resonance (SPR) spectroscopy, essentially as described in Example 3. Briefly, antibodies were studied as monovalent Fab fragments. Anti-human kappa polyclonal capture antibody (Southern Biotech, Ala. USA) was immobilized on a ethylenediamine-blocked CM4 sensor chip in a Biacore T200 surface plasmon resonance system. Fab fragments of selected antibodies of the present invention were then captured on one flow cell each. […] Running buffer was 20 mM BisTris, 150 mM NaCl, 0.05% Tween-20, 1 g/L BSA, at a pH ranging from 5.5 to 7.4 in 0.1-0.2 pH unit intervals (12 total). The surface was regenerated with 1/200 H₃PO₄ between cycles. […] Where required, the Rₘₐₓ was fixed by calculating expected binding based on capture level and apparent activity from other fits for the same Fab.

monomeric human CTLA-4 [9] = molecular target: T2, monomeric human CTLA-4; test: SPR, pH 6.0 and pH 7.5 (FIG. 6)
Description: (§6) Unless otherwise indicated, experiments were performed with a BIACORE® SPR surface plasmon resonance spectrometer (Biacore AB, Uppsala, Sweden). Antibodies were tested as monovalent Fab fragments to simplify analysis.
as §4

monomeric human CTLA-4 [10] = molecular target: T2, monomeric human CTLA-4; test: SPR, captured Fab, pH 6.0 and pH 7.4
monomeric human CTLA-4 [11] = molecular target: T2, monomeric human CTLA-4; test: SPR, captured Fab, pH 6.0; remark: listed apart in the source
Description: as §6, §4

monomeric human CTLA-4 [12] = molecular target: T2, monomeric human CTLA-4; test: SPR, captured Fab, pH 7.4; remark: listed apart in the source
Description: as §6, §4

monomeric human CTLA-4 [13] = molecular target: T2, monomeric human CTLA-4; test: SPR, captured Fab, pH 6.0 vs 7.4; remark: listed apart in the source
Description: as §6, §4

[14] = molecular target: T1, human CTLA-4 on 58 α-β-CTLA-4/CD3 ζ …; test: cell-based or functional assay
[15] = molecular target: T1, human CTLA-4 on 58 α-β-CTLA-4/CD3 ζ …; test: cell-based or functional assay; remark: listed apart in the source
[16] = molecular target: T1, human CTLA-4 on 58 α-β-CTLA-4/CD3 ζ …; test: flow cytometry, non-fucosylated IgG1 on 58αβ-CTLA4/mCD3ζ cells, pH 6.2
Description: as §1

[17] = molecular target: T1, human CTLA-4 on 58 α-β-CTLA-4/CD3 ζ …; test: cell-based or functional assay; remark: listed apart in the source
[18] = molecular target: T1, human CTLA-4 on 58 α-β-CTLA-4/CD3 ζ …; test: flow cytometry, non-fucosylated IgG1 on 58αβ-CTLA4/mCD3ζ cells, pH 6.7
Description: as §1

[19] = molecular target: T1, human CTLA-4 on 58 α-β-CTLA-4/CD3 ζ …; test: flow cytometry, non-fucosylated IgG1 on 58αβ-CTLA4/mCD3ζ cells, pH 7.2
Description: as §1

monomeric cyno CTLA-4 [20] = molecular target: T3, monomeric cyno CTLA-4; test: SPR, Fab, monomeric cyno CTLA-4 as analyte; koff (s^-1, linear axis 0 to 0.3) plotted against pH
Description: as §5

[21] = molecular target: T1, human CTLA-4 on 58 α-β-CTLA-4/CD3 ζ …; test: flow cytometry (APC mean FI), Fab on 58αβ-CTLA4/mCD3ζ cells, pH 6.7
Description: as §1, §2

monomeric human CTLA-4 [22] = molecular target: T2, monomeric human CTLA-4; test: SPR, captured Fab, pH 7.4; pH 7.4
Description: as §6, §4

B1: ipi.71 (full-length IgG) (antibody, V domains shown)
VH: QVQLVESGGGVVQPGRSLRLSCAASGFTFSHYTMHWVRQAPGKGLEWVTFISYDGHNKYYADSVKGRFTISRDNSKNTLYLQMNSLRAEDTAIYYCARTGWLGPFDYWGQGTLVTVSS
VL: not shown
notes: Full-length bivalent IgG (human IgG1); heavy chain entry is without the C-terminal lysine
- EC50 (read off the curve) [1]: ~1 nM
- EC50 (read off the curve) [2]: ~1 nM
- EC50 (read off the curve) [3]: ~1 nM

B2: ipi.95 (full-length IgG) (antibody, V domains shown)
VH: B1 VH
VL: EIVLTQSPGTLSLSPGERATLSCRASQEVGDSELAWYQQKPGQAPRLLIYGAFSRATGIPDRFSGSGSGTDFTLTISRLEPEDFAVYYCQQYGSSPWTFGQGTKVEIKR
notes: as for B1
- EC50 (read off the curve) [1]: ~1 nM
- EC50 (read off the curve) [3]: ~1 nM

B3: ipi.100 Fab (Fab, V domains shown)
VH: B1 VH with H56N
VL: not shown
notes: Tested as monovalent Fab
- EC50 (read off the curve) [4]: ~0.1 µg/mL
- Kd (monomeric human CTLA-4 [5]): 2.5 nM
- kon (monomeric human CTLA-4 [5]): 940000 M⁻¹ s⁻¹
- t1/2 (monomeric human CTLA-4 [5]): 289 s
- Kd (monomeric human CTLA-4 [6]): 46 nM
- kon (monomeric human CTLA-4 [6]): 460000 M⁻¹ s⁻¹
- t1/2 (monomeric human CTLA-4 [6]): 33 s
- KD 7.4/6 (APBP) (monomeric human CTLA-4 [7]): 17
- ka 6/7.4 (monomeric human CTLA-4 [7]): 2.1
- t1/2 6/7.4 (monomeric human CTLA-4 [7]): 8.8
- binding result (monomeric cyno CTLA-4 [8]): binds

B4: ipi.64 Fab (Fab, V domains shown)
VH: B1 VH with H56N
VL: not shown
notes: Tested as monovalent Fab; also called IPI.64 mutant fab; LCDR1 S28E/S31D and HCDR1 S31H
- Kd (monomeric human CTLA-4 [5]): 2.7 nM
- kon (monomeric human CTLA-4 [5]): 1.4e+06 M⁻¹ s⁻¹
- t1/2 (monomeric human CTLA-4 [5]): 182 s
- CAPBP (ratio of KD normalized to ipilimumab) (monomeric human CTLA-4 [9]): 27.2
- Kd (monomeric human CTLA-4 [6]): 37 nM
- kon (monomeric human CTLA-4 [6]): 780000 M⁻¹ s⁻¹
- t1/2 (monomeric human CTLA-4 [6]): 25 s
- KD 7.4/6 (APBP) (monomeric human CTLA-4 [7]): 13
- ka 6/7.4 (monomeric human CTLA-4 [7]): 1.8
- t1/2 6/7.4 (monomeric human CTLA-4 [7]): 7.6
- binding result (monomeric cyno CTLA-4 [8]): binds

B5: ipi.3 Fab (Fab, V domains shown)
VH: B1 VH with H31S, H56N, T99H
VL: not shown
notes: Tested as monovalent Fab; also called HCDR3 T95H (Kabat)
- fold decrease of affinity (increased KD) vs ipilimumab (monomeric human CTLA-4 [10]): ~4 fold
- Kd (monomeric human CTLA-4 [5]): 76 nM
- kon (monomeric human CTLA-4 [5]): 1.1e+06 M⁻¹ s⁻¹
- t1/2 (monomeric human CTLA-4 [5]): 9 s
- Kd (monomeric human CTLA-4 [11]): 180 nM
- koff (monomeric human CTLA-4 [11]): 0.15 s⁻¹
- kon (monomeric human CTLA-4 [11]): 840000 M⁻¹ s⁻¹
- Kd (monomeric human CTLA-4 [6]): 97 nM
- KD 7.4/6 (APBP) (monomeric human CTLA-4 [7]): 1.3
- Kd (monomeric human CTLA-4 [12]): 200 nM
- koff (monomeric human CTLA-4 [12]): 0.094 s⁻¹
- kon (monomeric human CTLA-4 [12]): 480000 M⁻¹ s⁻¹
- KD 7.4/6 (APBP) (monomeric human CTLA-4 [13]): 0.9

B9: ipi.90 Fab (Fab, V domains shown)
VH: B1 VH with H56N, T99H
VL: B2 VL
notes: Tested as monovalent Fab
- Kd (monomeric human CTLA-4 [5]): 36 nM
- kon (monomeric human CTLA-4 [5]): 1.9e+06 M⁻¹ s⁻¹
- t1/2 (monomeric human CTLA-4 [5]): 10 s
- KD 7.4/6 (APBP) (monomeric human CTLA-4 [7]): > 28
- Kd (monomeric human CTLA-4 [22]): > 1000 nM

The next lines start with the values.

- IC50 (read off the curve), mIL-2 secretion, 58αβ-hCTLA/mCD3ζ:rhB7-1 blocking assay, 18 h, pH 7.2 [14]: ~1 nM
- IC50 (read off the curve), mIL-2 secretion, 58αβ-hCTLA/mCD3ζ:rhB7-1 blocking assay, 18 h, pH 6.8 [15]: ~1 nM
- Cmax (MFI) [16]: 122000 MFI
- EC50 [16]: 2.94 nM
- IC50 (read off the curve), mIL-2 secretion, 58αβ-hCTLA/mCD3ζ:rhB7-1 blocking assay, 18 h, pH 7.0 [17]: ~1 nM
- Cmax (MFI) [18]: 126000 MFI
- EC50 [18]: 2.85 nM
- Cmax (MFI) [19]: 125000 MFI
- EC50 [19]: 2.8 nM
B6: ipi.100, non-fucosylated IgG1 (antibody, V domains shown)
VH: B1 VH with H56N
VL: not shown
modifications: non-fucosylated N-linked glycan
notes: Non-fucosylated full-length human IgG1; also called Ipi.100 IgG1-NF

- Kd (monomeric human CTLA-4 [5]): 18 nM
- kon (monomeric human CTLA-4 [5]): 1.2e+06 M⁻¹ s⁻¹
- t1/2 (monomeric human CTLA-4 [5]): 33 s
- binding result (monomeric cyno CTLA-4 [20]): binds
- Kd (monomeric human CTLA-4 [6]): > 350 nM
- EC50 (read off the curve) [21]: ~3 µg/mL
- KD 7.4/6 (APBP) (monomeric human CTLA-4 [7]): > 20
B7: ipi.106 Fab (Fab, V domains shown)
VH: B1 VH with T99H
VL: B2 VL with D31E
notes: Tested as monovalent Fab

- IC50 (read off the curve), mIL-2 secretion, 58αβ-hCTLA/mCD3ζ:rhB7-1 blocking assay, 18 h, pH 7.2 [14]: ~1 nM
- IC50 (read off the curve), mIL-2 secretion, 58αβ-hCTLA/mCD3ζ:rhB7-1 blocking assay, 18 h, pH 6.8 [15]: ~0.7 nM
- Cmax (MFI) [16]: 121000 MFI
- EC50 [16]: 3.52 nM
- IC50 (read off the curve), mIL-2 secretion, 58αβ-hCTLA/mCD3ζ:rhB7-1 blocking assay, 18 h, pH 7.0 [17]: ~1 nM
- Cmax (MFI) [18]: 126000 MFI
- EC50 [18]: 4.06 nM
- Cmax (MFI) [19]: 124000 MFI
- EC50 [19]: 3.81 nM
B8: ipi.101, non-fucosylated IgG1 (antibody, V domains shown)
VH: B1 VH
VL: not shown
modifications: non-fucosylated N-linked glycan
notes: Non-fucosylated full-length human IgG1; also called Ipi.101 IgG1-NF
